Experiment [1] deals with Encapsulin from Mycobacterium smegmatis with Streptavidin-tag (^StrepEncSM) (Mycobacterium smegmatis) (UniProt A0R4H0). Put plainly: in-gel fluorescence against a standard curve.
Experiment [2] has the same target. Put plainly: FRET or BRET.

As for “HaloTag construct carrying an encapsulin localization sequence (HaloTag-ELS)”, the labeled cargo proteins per capsid (labeled cargo proteins per capsid) in experiment [1] came out at 6.6. Further, in experiment [2], the fluorophore binding sites per vesicle (fluorophore binding sites per vesicle) is above 3.

(Values after PMC8596989.)
